B1: Azoarcus group I ribozyme (parent)
chain: GUGCCUUGCGCCGGGAAACCACGCAAGGGAUGGUGUCAAAUUCGGCGAAACCUAAGCGCCCGCCCGGGCGUAUGGCAACGCCGAGCCAAGCUUCGGCGCCUGCGCCGAUGAAGGUGUAGAGACUAGACGGCACCCACCUAAGGCAAACGCUAUGGUGAAGGCAUAGUCCAGGGAGUGGCGAAAGUCACACAAACCGG

In the data set the parent is B1. The data set can be described thus: reverse-splicing fitness (ratio to wild type); higher = more active; in vitro selection; Mg2+ level not given. In outline: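 An in vitro group I ribozyme library with randomized positions was T7-transcribed and gel-purified. In triplicate, 10 pmol RNA in EPPS pH 7.5 was reacted with 50 pmoles of a 30-nt RNA substrate for 1 h at 37 °C across several added MgCl2 levels (1–48 mM), then stopped with EDTA. Products were reverse transcribed from a substrate-complementary primer, PCR-amplified and sequenced (HiSeq 4000). Fitness is a variant's read proportion after selection over that before, normalised to wild type.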
As to C82A C169G U176A, the reverse-splicing fitness amounted to 0.0139.

Turning to C82G A111C A120G A145G C150A C169G U176C, the reverse-splicing fitness is 0.0267.

A111U A145C C150G C169U U176G: the reverse-splicing fitness stood at 0.00557.

For C82G A111U A120G A145G U176C, the reverse-splicing fitness stood at 0.0176.

Consider C82G C150A C169A U176C, for which the reverse-splicing fitness came out at 0.0158.

With A111U A120C U176C, the reverse-splicing fitness worked out at 0.28.

On to C82A A111U A145U C150G U176C, for which the reverse-splicing fitness came out at 0.0189.

For A111U A120U A145U C169U U176C, the reverse-splicing fitness is 0.0174.

For A145C C150G U176A, the reverse-splicing fitness came to 0.364.

Consider C82U A111C A120C A145G C150U C169G U176A, for which the reverse-splicing fitness is 0.0115.

Take C82U A111G A145G C150G C169G U176G: the reverse-splicing fitness is 0.00507.

Take C82A A111U A120U A145C C150G C169U U176C: the reverse-splicing fitness was found to be 0.00285.

On to C82G A111U A120C A145G C150A C169G, for which the reverse-splicing fitness came to 0.00949.

On to C82G A111U A120U A145G C169A U176C, for which the reverse-splicing fitness turned out to be 0.00529.

Turning to C82G A111G A120G A145G C150G C169A U176C, the reverse-splicing fitness was determined as 0.0138.

As for C82A A111U A120G C150G U176A, the reverse-splicing fitness turned out to be 0.00663.

C82U C150U C169A: the reverse-splicing fitness came to 0.00983.

For A111G A120C A145C C169U U176A, the reverse-splicing fitness amounted to 0.0611.

C82G A120G A145C C150G C169A U176C: the reverse-splicing fitness stood at 0.00681.

A111U A120G C150U C169A: the reverse-splicing fitness is 0.0593.

As to C82G A111C A120U A145U C150U C169U U176C, the reverse-splicing fitness was found to be 0.00311.

Consider C82G A111U A145C C150A C169U U176A, for which the reverse-splicing fitness stood at 0.0163.

Turning to A120U A145C C150U C169A U176A, the reverse-splicing fitness turned out to be 0.00179.

C82A A111U A145U C169G U176A: the reverse-splicing fitness came out at 0.0127.

As to C82G A111C A120U A145C C150A C169A U176C, the reverse-splicing fitness turned out to be 0.00225.

For A111G A120U A145G C169U U176G, the reverse-splicing fitness was 0.0035.

As to A120C A145G C150U C169A U176C, the reverse-splicing fitness came out at 0.0196.

Turning to C82G A111G A120G A145C C150A C169U, the reverse-splicing fitness amounted to 0.0075.

Turning to A111G A120G A145G C150U C169G U176A, the reverse-splicing fitness came to 0.0549.

In the case of C82G A111G A120G A145U C150G U176A, the reverse-splicing fitness was found to be 0.00801.

As to A111G A120G A145U C150U C169U, the reverse-splicing fitness turned out to be 0.157.

As to A111G A120G A145U C150U C169A, the reverse-splicing fitness came to 0.114.

Turning to C82A A111U A120G A145U C150G C169U U176A, the reverse-splicing fitness is 0.0104.

Turning to C82G A111G A120G A145C C150G C169U U176C, the reverse-splicing fitness was 0.0147.

Turning to C82A A111U A120G A145U C150U C169G U176A, the reverse-splicing fitness came out at 0.0153.

On to C82G A111G A145C C150U C169U U176C, for which the reverse-splicing fitness came out at 0.0103.

In the case of C82G A111U A120G A145G C150A U176A, the reverse-splicing fitness is 0.011.

Turning to C82G A111G A145C C150U U176G, the reverse-splicing fitness was found to be 0.0267.

C82U A120U A145C C150U C169A U176G: the reverse-splicing fitness turned out to be 0.00165.

For the variant C82G A120G C150A C169G, the reverse-splicing fitness is 0.0133.

With A111U A145G C150G C169G U176G, the reverse-splicing fitness was found to be 0.00597.

C82G A111C A145U C150U U176G: the reverse-splicing fitness stood at 0.0297.

A111C A120G A145G C169A U176A: the reverse-splicing fitness was determined as 0.0264.

Take C82U A120C A145U C169U U176A: the reverse-splicing fitness is 0.0169.

A111C A120G A145C C169U U176G: the reverse-splicing fitness came to 0.00492.

Regarding C82A A120C A145G C169G U176A, the reverse-splicing fitness came out at 0.0237.

Take A111U A145C C169G: the reverse-splicing fitness was 0.0589.

For the variant C82U A111C A120C A145G C150G C169G U176C, the reverse-splicing fitness turned out to be 0.011.

With C82G A145C C150U C169A U176G, the reverse-splicing fitness stood at 0.00476.

In the case of C82A A111G C169A, the reverse-splicing fitness was 0.00855.

C82A A111U A120G C150A C169U U176G: the reverse-splicing fitness worked out at 0.00816.

For the variant A120G A145G C150A C169U U176C, the reverse-splicing fitness came to 0.0707.

Consider A111U A120U A145C C150G C169A U176G, for which the reverse-splicing fitness was determined as 0.00254.

Consider C82G A111C A120C A145G C150G C169U U176A, for which the reverse-splicing fitness was 0.0116.

On to C82G A111G A120U A145G C150G C169U, for which the reverse-splicing fitness was determined as 0.00737.

Regarding A111U A145U C150U C169U, the reverse-splicing fitness came to 0.0705.

Consider A111U A120C A145C C150A C169A U176G, for which the reverse-splicing fitness turned out to be 0.00536.

Consider A111U A120G A145C C150G C169A U176G, for which the reverse-splicing fitness was 0.00416.

For the variant A111G A145G C150A C169U U176G, the reverse-splicing fitness is 0.00641.

As for C82G A111U A120G C150G C169A U176G, the reverse-splicing fitness was determined as 0.00726.

Consider C82U A111G A120U A145G C169A U176G, for which the reverse-splicing fitness was determined as 0.00159.

C82A A111G A120U A145G C169U U176C: the reverse-splicing fitness was 0.00338.

For A111C A145G C169U, the reverse-splicing fitness was found to be 0.126.

On to C82U A111U A145U C150G C169G U176G, for which the reverse-splicing fitness was 0.00587.

For the variant C82G A111C A120U, the reverse-splicing fitness worked out at 0.0509.

With C82A A111G A120C A145U C150U C169U, the reverse-splicing fitness turned out to be 0.0117.

Turning to C82G A111U A120G A145C C150G, the reverse-splicing fitness worked out at 0.00659.

With C82A A111G A120U C169A U176A, the reverse-splicing fitness amounted to 0.00268.

Take A120G C150G C169U: the reverse-splicing fitness worked out at 0.0614.

As for A120G C150G C169A, the reverse-splicing fitness came to 0.0439.

In the case of A120G A145C C150U C169G, the reverse-splicing fitness was found to be 0.213.

For the variant A111U A120U A145U C150G C169A, the reverse-splicing fitness stood at 0.00326.

For C82U A145C C169A U176C, the reverse-splicing fitness came out at 0.00633.

In the case of C82G A111U A120C A145C, the reverse-splicing fitness was found to be 0.0408.

For C82A A111C A120U A145U C169G U176G, the reverse-splicing fitness is 0.00259.

Take C82G A111U A120U A145C C150A C169A U176A: the reverse-splicing fitness is 0.00214.

On to A111U A120G C150G C169A, for which the reverse-splicing fitness was 0.0142.

On to A111G A120C A145C C150G C169U U176C, for which the reverse-splicing fitness turned out to be 0.0127.

For the variant C82A A120C A145U C150U C169U, the reverse-splicing fitness came out at 0.0159.

In the case of C82U A111G A120C A145U C150A C169A U176A, the reverse-splicing fitness was 0.0128.

On to C82G A145C C150G, for which the reverse-splicing fitness was determined as 0.0512.

For the variant C82A A120U A145U C150A C169U U176A, the reverse-splicing fitness was 0.00228.

Take C82A A111C A120C A145G C169A U176G: the reverse-splicing fitness was determined as 0.00684.

Values taken from the RNAGym collection of RNA variant scans (doi:10.1093/molbev/msab373).
